Experimental data reported in PMC3856062.

Molecular target: CFP-SelM′ (human) (UniProt Q8WWX9)
Experiment: FRET or BRET; acceptor photobleaching FRET in living HeLa cells cotransfected with CFP (donor) and YFP (receptor) plasmids; region of interest bleached at 515 nm for 20 s; laser confocal microscope

UniProt Q8WWX9, sequence (Q8WWX9 28-145): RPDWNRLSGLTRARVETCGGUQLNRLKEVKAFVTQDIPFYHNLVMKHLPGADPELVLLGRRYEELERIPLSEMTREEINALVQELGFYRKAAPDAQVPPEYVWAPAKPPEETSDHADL

FRET efficiency: 27.3%
distance between donor and receptor (FRET): 6.35 nm
Substance: YFP-Gal-1 (from UniProt P09382 1-135) (natural protein)
